In this data set the target is T1, hPh1 FCS domain (Polyhomeotic homolog 1) (human, UniProt P78364 783-828).
T1 chain: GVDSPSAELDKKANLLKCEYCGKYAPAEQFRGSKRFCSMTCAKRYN
Description: NMR HSQC titration.

GGGCACGCGUAUUGCCCUAGUGGCCGGCGUGCCC (structured_RNA) [34nt RNA] registered a Kd of 3000 ± 1100 µM.

The values are drawn from publication PMC3938326.
